Data from patent US20220289837A1, “Cystic Fibrosis Transmembrane Conductance Regulator Stabilizing Agents” (VIB VZW, priority 2019, published 2022).

Key:
wt-CFTR = wt-CFTR (Homo sapiens, UniProt P13569); assay: ATPase activity of wt-CFTR; assay type: biochemical; design: His10-SUMO* (N); FLAG; EGFP (C); made in house; host or cells: HEK 293 cell line D165; settings: saturating concentration of nanobody
Protocol: To determine effect of nanobodies on functional stability, aliquots of purified wt-CFTR (25 nM) were preincubated 1 h on ice with 1 μM nanobody (or 15 μM, in the case of G3a). Substrate α-[32P]-ATP (2 μl) was then added for measurement of ATPase activity as previously described^[48]. Then, nanobody protection against thermal denaturation was determined after a 30 min thermal challenge of the protein complexes followed by an assay of residual ATPase.

parental BHK-21 cells = assay: Flow cytometry on parental BHK-21 cells; assay type: cell-based, hamster; settings: compared to negative control nanobody
Protocol: Parental BHK-21 cells (ATCC; CCL-10) and cells stably overexpressing human wt-CFTR^[43,44,47] or 2PT-F508del-CFTR, as described above, were permeabilized with 0.01% n-Dodecyl-β-D-Maltopyranoside β-DDM—Inalco) at least for 2 h on ice. In the meantime, cells were incubated with 50 μg/ml nanobodies and DRAQ7 (0.3 μM—Biostatus) to monitor the permeabilization state. Nanobody binding was detected by using His-tag specific antibody (Invitrogen, catalogue number MA1-135, 1 μg/ml) or Myc-tag specific antibody (Invitrogen, catalogue number 13-2500, 2 μg/ml) and then anti-mouse-Alexa Fluor 488 (Invitrogen, catalogue number A11001, 1.3 μg/ml) at least for 30 min on ice. Cells were washed one time between each step by centrifugation (200×g for 5 min at 4° C.). All incubations (100 μl) and washes (1.5 ml) were performed in PBS with 6% fetal bovine serum (FBS) and 0.01%13-DDM on ice. Cells fluorescence was measured with Gallios Flow Cytometer (Beckman Coulter). Data were analyzed with Kaluza software.

F508del-2PT-NBD1 = target: T1, F508del-2PT-NBD1 (Homo sapiens, UniProt P13569, A534P/DEL508-508/I539T/S492P/V470M); assay: NBD1 ELISA dose-response, nanobody binding to immobilized F508del-2PT-NBD1; settings: for effect of F508del mutation on binding: F508del-2PT-NBD1 versus 2PT-NBD1
T1 construct: His6-SUMO (N, cleaved yes); made in house; host or cells: Escherichia coli BL21(DE3) pLysS
T1 sequence (P13569 with tags, fused parts or gaps V470M/S492P/DEL508-508/A534P/I539T limits assumed): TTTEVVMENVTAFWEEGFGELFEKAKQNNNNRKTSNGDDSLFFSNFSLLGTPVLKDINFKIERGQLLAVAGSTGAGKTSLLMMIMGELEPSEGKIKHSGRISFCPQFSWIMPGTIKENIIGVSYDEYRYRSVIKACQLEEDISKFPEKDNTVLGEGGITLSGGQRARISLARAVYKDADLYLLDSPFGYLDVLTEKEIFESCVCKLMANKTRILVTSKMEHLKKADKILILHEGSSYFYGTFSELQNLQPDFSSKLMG
Protocol: (§1) For dose-response assays, Nunc MaxiSorp 96-well plates (ThermoScientific), were coated with 5 μg/ml NeutrAvidin Biotin-Binding protein (ThermoScientific) overnight at 4° C. and blocked 2 h at room temperature (RT) with 2% milk in phosphate-buffered saline (PBS). Each new reagent addition was preceded by three washes with 200 μl of NBD1 buffer (20 mM HEPES pH 7.5, 150 mM NaCl, and 10% (w/v) glycerol, 10% (w/v) ethylene glycol, 2 mM ATP, 3 mM MgCl2). Then, biotinylated purified NBD1 proteins at 5 μg/ml were immobilized 30 min at RT followed by 1 h RT incubation with 100 μl various concentrations (0-20 μg/ml) of purified nanobodies. Signal detection was followed using His-tag specific antibody (Invitrogen, catalogue number: MA1-135, 1:3000 dilution) to detect the nanobodies and secondary antibody anti-mouse coupled to horse radish peroxidase (HRP) (Millipore, catalogue number: AP308P, 1:5000 dilution). 50 μl of 1-Step UltraTMB-ELISA (ThermoScientific) was used as a substrate for the peroxidase and intensity of the reaction was proportional to absorbance measured at 450 nm with SynergyMx (BioTek) after addition of 50 μl H2SO4 at 1M.
Affinity constants (KD) and thermodynamic parameters from ITC experiments were determined using one-site binding model with MicroCal Origin 7.0 software (Origin Lab Corp.). Dose response ELISA curves of each Nb binding to either isolated NBD1 or purified FL-CFTR were fitted using the sigmoidal dose-response equation from GraphPad Prism 3. DSC data were analyzed with the MicroCal Origin 7.0 software (Origin Lab Corp.), from which the unfolding temperature (Tm) was obtained.

2PT-NBD1-RE = assay: NBD1 ELISA dose-response, binding to 2PT-NBD1-RE; design: species or system human; settings: for binding to 2PT-NBD1-RE: construct containing the regulatory extension
2PT-NBD1-RE, sequence (P13569 387-678 S492P/A534P/I539T): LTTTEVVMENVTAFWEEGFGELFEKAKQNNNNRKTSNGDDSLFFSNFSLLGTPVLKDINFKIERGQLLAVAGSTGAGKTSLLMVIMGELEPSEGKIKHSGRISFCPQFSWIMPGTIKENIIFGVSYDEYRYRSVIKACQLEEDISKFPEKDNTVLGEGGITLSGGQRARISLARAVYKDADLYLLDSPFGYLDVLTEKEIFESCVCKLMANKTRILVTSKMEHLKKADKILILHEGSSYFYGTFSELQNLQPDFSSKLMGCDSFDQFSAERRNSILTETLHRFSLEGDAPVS
Excerpt: Human ΔRI-NBD1 (residues 387-646, A405-436; SEQ ID NO:59) construct was obtained from Arizona State University Plasmid Repository (clone id: 287374), 2PT-NBD1 mutants (residues 387-646 containing the mutations S492P, A534P, I539T; SEQ ID NO:58), 2PT-NBD1-RE (2PT-NBD1 with residues 387-678) were constructed using WT-NBD1 construct from ASU (clone id: 287401). Mutations were introduced by PCR using PfuUltra high-fidelity DNA polymerase from Agilent (catalogue number: 600382) and sequences were confirmed by automated DNA sequencing (UNC-CH Genome Analysis Facility). Proteins were expressed as N-terminal, His6-SUMO fusion proteins in Escherichia coli (BL21(DE3) pLysS cells, Millipore) as described in [5,11] with the following modifications. Cells were lysed using a French press and recombinant proteins were purified by nickel ion affinity chromatography (HisTrap HP, 1 ml—GE Healthcare). The His6-SUMO tag was removed using Ulp1 protease at 1/100 weight/weight ratio during 20 min on ice. […] Protein concentration was determined using Coomassie Plus (Bradford) Assay Kit (Thermo Scientific).
as §1

wt-CFTR, sequence (P13569 whole entry): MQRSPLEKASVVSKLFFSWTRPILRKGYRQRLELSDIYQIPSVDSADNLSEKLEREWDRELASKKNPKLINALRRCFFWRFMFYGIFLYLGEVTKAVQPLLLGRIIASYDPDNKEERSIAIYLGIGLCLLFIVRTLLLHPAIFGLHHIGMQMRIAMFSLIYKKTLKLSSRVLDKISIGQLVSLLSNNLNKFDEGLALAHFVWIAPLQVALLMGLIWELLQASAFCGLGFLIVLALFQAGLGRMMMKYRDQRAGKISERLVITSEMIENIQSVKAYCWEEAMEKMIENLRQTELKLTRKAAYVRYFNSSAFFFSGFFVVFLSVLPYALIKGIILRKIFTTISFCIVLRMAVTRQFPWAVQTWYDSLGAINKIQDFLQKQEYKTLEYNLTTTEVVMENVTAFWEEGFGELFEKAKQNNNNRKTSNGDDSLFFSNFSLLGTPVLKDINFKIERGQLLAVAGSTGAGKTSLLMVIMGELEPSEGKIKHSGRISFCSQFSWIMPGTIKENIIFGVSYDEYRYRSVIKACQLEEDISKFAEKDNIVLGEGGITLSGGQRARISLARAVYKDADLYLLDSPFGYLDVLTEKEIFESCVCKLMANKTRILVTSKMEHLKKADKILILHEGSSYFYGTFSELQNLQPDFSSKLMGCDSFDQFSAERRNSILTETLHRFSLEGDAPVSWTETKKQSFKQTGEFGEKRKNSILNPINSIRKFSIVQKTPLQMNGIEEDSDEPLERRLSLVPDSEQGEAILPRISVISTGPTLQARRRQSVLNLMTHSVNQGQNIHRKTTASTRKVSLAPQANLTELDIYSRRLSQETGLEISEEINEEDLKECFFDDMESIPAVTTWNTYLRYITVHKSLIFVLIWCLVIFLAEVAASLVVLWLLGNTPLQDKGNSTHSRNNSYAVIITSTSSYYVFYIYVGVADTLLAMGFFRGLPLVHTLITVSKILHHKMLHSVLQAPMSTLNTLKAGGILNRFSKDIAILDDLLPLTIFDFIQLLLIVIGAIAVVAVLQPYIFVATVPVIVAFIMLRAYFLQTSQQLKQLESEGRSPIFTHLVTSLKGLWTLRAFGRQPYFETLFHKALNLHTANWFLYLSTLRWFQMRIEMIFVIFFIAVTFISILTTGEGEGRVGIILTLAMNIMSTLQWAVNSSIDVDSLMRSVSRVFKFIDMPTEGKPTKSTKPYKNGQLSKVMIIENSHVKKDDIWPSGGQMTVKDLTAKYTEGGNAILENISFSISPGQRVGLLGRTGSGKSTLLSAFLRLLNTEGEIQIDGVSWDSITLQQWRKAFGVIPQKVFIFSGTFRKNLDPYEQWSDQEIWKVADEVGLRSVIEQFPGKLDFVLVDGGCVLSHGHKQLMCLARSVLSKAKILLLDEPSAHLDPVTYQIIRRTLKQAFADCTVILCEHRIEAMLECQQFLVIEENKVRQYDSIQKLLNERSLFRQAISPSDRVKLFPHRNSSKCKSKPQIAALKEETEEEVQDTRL

B1: G3a: non-stabilizing nanobody, SEQ ID NO:50, recognizes the structurally diverse region of NBD1 (protein)
VHH: QVQLQESGGGLVQAGGSLRLSCTASGRAFSWYVMGWFRQAPGKEREFVATVSGNGSRRDYADSVKGRFTISRDNAKNTVYLQMNSLKPEDTAVYYCAASSTYYYTDPEKYDYWGQGTQVTVSS
modifications: G3a Nanobody
In the case of B1, the ATPase activity (wt-CFTR) is reported as “did not affect”, the “labelling of parental BHK-21 cells” value (parental BHK-21 cells) is reported as “no difference in labelling” and the “EC50 of binding to F508del-2PT-NBD1” value (F508del-2PT-NBD1; immobilized F508del-2PT-NBD1) is reported as “weaker binding potency”.

B2: T8: nanobody, SEQ ID NO:7, binds epitope 2 including F508, stabilizes WT CFTR but not F508del (protein)
VHH: QVQLQESGGGLVQPGGSLRLSCAASGSTSSINAMGWYRQAPGKQREPVAISSSGGDTRYAEPVKGRFTISRDNAQNKVYLQMNSLKPEDTAVYYCWLNWGRTSVNSWGQGTQVTVSS
modifications: T8 Nanobody amino acid sequence
With B2 the ATPase activity (wt-CFTR) was 60 % of PKA-phosphorylated CFTR, the “labelling of parental BHK-21 cells” value (parental BHK-21 cells) was “no difference in labelling” and the “effect of F508del mutation on binding” value (F508del-2PT-NBD1) was “drastically affected”.

B3: D12: NBD1-specific CFTR-stabilizing nanobody, SEQ ID NO:2, binds epitope 1 (protein)
VHH: QVQLQESGGGLVQAGSSLRLACAATGSIRSINNMGWYRQAPGKQRGMVAIITRVGNTDYADSVKGRFTISRDNAKNTVYLQMNSLKPEDTATYYCHAEITEQSRPFYLTDDYWGQGTQVTVSS
modifications: D12 Nanobody amino acid sequence
In the case of B3, the “apparent EC50 on 2PT-NBD1-RE compared to 2PT-NBD1” value (2PT-NBD1-RE) is reported as “decrease in apparent EC50”, the “binding to 2PT-NBD1-RE” value (2PT-NBD1-RE) is reported as “high-affinity binding” and the ATPase activity (wt-CFTR) is reported as 50 % of PKA-phosphorylated CFTR. The “labelling of parental BHK-21 cells” value (parental BHK-21 cells) was “no difference in labelling” and the “effect of F508del mutation on binding” value (F508del-2PT-NBD1) was “not affected”.

B4: T2a: NBD1-specific CFTR-stabilizing nanobody, SEQ ID NO:3, binds epitope 1 (protein)
VHH: QVQLQESGGGLVQAGGSLRLSCAASGSIFRIDAMGWYRQAPGKQRELVAHSTSGGSTDYADSVKGRFTISRDNAKNTVYLQMNSLKPEDTAVYYCNADVRTRWYASNNYWGQGTQVTVSS
modifications: T2a Nanobody amino acid sequence
For B4, the “apparent EC50 on 2PT-NBD1-RE compared to 2PT-NBD1” value (2PT-NBD1-RE) was “decrease in apparent EC50”, the “binding to 2PT-NBD1-RE” value (2PT-NBD1-RE) was “high-affinity binding” and the ATPase activity (wt-CFTR) was 50 % of PKA-phosphorylated CFTR. For the same molecule, the “labelling of parental BHK-21 cells” value (parental BHK-21 cells) was “no difference in labelling” and the “effect of F508del mutation on binding” value (F508del-2PT-NBD1) was “not affected”.

B5: T27: NBD1-specific CFTR-stabilizing nanobody, SEQ ID NO:4, binds epitope 1 (protein)
VHH: QVQLQESGGGLEQPGGSLRLSCATSGVIFGINAMGWYRQAPGKQRELVATFTSGGSTNYADFVEGRFTISRDNAKNTVYLQMNGLRPEDTAVYYCHATVVVSRYGLTYDYWGQGTQVTVSS
modifications: T27 Nanobody amino acid sequence
B5 was tested, and the “apparent EC50 on 2PT-NBD1-RE compared to 2PT-NBD1” value (2PT-NBD1-RE) was “decrease in apparent EC50”, the “binding to 2PT-NBD1-RE” value (2PT-NBD1-RE) was “high-affinity binding” and the ATPase activity (wt-CFTR) was 30 % of PKA-phosphorylated CFTR. For the same molecule, the “labelling of parental BHK-21 cells” value (parental BHK-21 cells) was “no difference in labelling” and the “effect of F508del mutation on binding” value (F508del-2PT-NBD1) was “not affected”.
